Results on five sequences are retold here after the supplement of paper PMC5998384.

The test system of data set [1] is HeLa Kyoto. Description: melting temperature (median over replicates), in situ; higher = more thermally stable.
For data set [2], the system named is HeLa Kyoto. Put plainly: solubility change mitosis vs G1/S (difference of NP-40 vs SDS log2 ratios) (log2 ratio difference); higher = more soluble in mitosis.
For data set [3], the system named is HeLa Kyoto. Put plainly: thermal stability score vs G1/S (z-score of summed log2 fold changes over temperatures); higher = more thermally stable than in G1/S.
Data set [4] relates to HeLa Kyoto. Put plainly: solubility in G1/S (NP-40 vs SDS abundance) (log2 ratio); higher = more soluble. Particulars: cell cycle stage: G1/S.
Setting [5] is: cell cycle stage: early G1 (4.5 h after nocodazole release).
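For melting temperature (median over replicates), in situ in this document: HeLa Kyoto cells synchronized by double thymidine or nocodazole block, proteins quantified by TMT10plex mass spectrometry, three independent biological replicates.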
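For solubility change mitosis vs G1/S (difference of NP-40 vs SDS log2 ratios) in this document: synchronized HeLa Kyoto cells (double thymidine block for G1/S, nocodazole release for mitosis), protein amounts in NP-40 versus SDS lysates quantified by mass spectrometry, three biological replicates.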
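For solubility in G1/S (NP-40 vs SDS abundance) in this document: HeLa Kyoto cells arrested at G1/S by double thymidine block, proteins quantified by TMT10plex mass spectrometry in mild NP-40 versus SDS extracts, three biological replicates.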
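For thermal stability score vs G1/S (z-score of summed log2 fold changes over temperatures) in this document: synchronized HeLa Kyoto cells, proteins quantified by TMT10plex mass spectrometry, three biological replicates, mitosis taken 0.5 h after nocodazole release, G1/S directly after double thymidine block.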

As to “MAASAAAASAAAASAASGSPGPGEGSAGGEKRSTAPSAAASASASAAASSPAGGGAEALELLEHCGVCRERLRPEREPRLLPCLHSACSACLGPAAPAAANSSGDGGAAGDGTVVDCPVCKQQCFSKDIVENYFMRDSGSKAATDAQDANQCCTSCEDNAPATSYCVECSEPLCETCVEAHQRVKYTKDHTVRSTGPAKSRDGERTVYCNVHKHEPLVLFCESCDTLTCRDCQLNAHKDHQYQFLEDAVRNQRKLLASLVKRLGDKHATLQKSTKEVRSSIRQVSDVQKRVQVDVKMAILQIMKELNKRGRVLVNDAQKVTEGQQERLERQHWTMTKIQKHQEHILRFASWALESDNNTALLLSKKLIYFQLHRALKMIVDPVEPHGEMKFQWDLNAWTKSAEAFGKIVAERPGTNSTGPAPMAPPRAPGPLSKQGSGSSQPMEVQEGYGFGSGDDPYSSAEPHVSGVKRSRSGEGEVSGLMRKVPRVSLERLDLDLTADSQPPVFKVFPGSTTEDYNLIVIERGAAAAATGQPGTAPAGTPGAPPLAGMAIVKEEETEAAIGAPPTATEGPETKPVLMALAEGPGAEGPRLASPSGSTSSGLEVVAPEGTSAPGGGPGTLDDSATICRVCQKPGDLVMCNQCEFCFHLDCHLPALQDVPGEEWSCSLCHVLPDLKEEDGSLSLDGADSTGVVAKLSPANQRKCERVLLALFCHEPCRPLHQLATDSTFSLDQPGGTLDLTLIRARLQEKLSPPYSSPQEFAQDVGRMFKQFNKLTEDKADVQSIIGLQRFFETRMNEAFGDTKFSAVLVEPPPMSLPGAGLSSQELSGGPGDGP [TRIM28]”, the values for the melting temperature in the data set on HeLa Kyoto [1] (cell cycle stage: G1/S) and with HeLa Kyoto [1] (cell cycle stage: mitosis) were 48.2 °C and 49.2 °C, respectively. In addition, the “solubility change mitosis (log2)” value in the data set on HeLa Kyoto [2] is -0.0696. Moreover, the thermal stability score came to 1.33 in the data set with HeLa Kyoto [3] (setting [5]) and 6.59 with HeLa Kyoto [3] (cell cycle stage: mitosis). In addition, the “solubility in G1/S (log2)” value with HeLa Kyoto [4] was 0.119.
Regarding “MAASAGAGAVIAAPDSRRWLWSVLAAALGLLTAGVSALEVYTPKEIFVANGTQGKLTCKFKSTSTTGGLTSVSWSFQPEGADTTVSFFHYSQGQVYLGNYPPFKDRISWAGDLDKKDASINIENMQFIHNGTYICDVKNPPDIVVQPGHIRLYVVEKENLPVFPVWVVVGIVTAVVLGLTLLISMILAVLYRRKNSKRDYTGCSTSESLSPVKQAPRKSPSDTEGLVKSLPSGSHQGPVIYAQLDHSGGHHSDKINKSESVVYADIRKN [MPZL1]”, the values for the melting temperature in the data set on HeLa Kyoto [1] (cell cycle stage: G1/S) and with HeLa Kyoto [1] (cell cycle stage: mitosis) were 57.8 °C and 58.1 °C, respectively. In addition, the “solubility change mitosis (log2)” value in the data set on HeLa Kyoto [2] is -0.289. Besides, the thermal stability score in the data set on HeLa Kyoto [3] (setting [5]) is -1.73; in the data set with HeLa Kyoto [3] (cell cycle stage: mitosis), -3.55. Also, in the data set with HeLa Kyoto [4], the “solubility in G1/S (log2)” value turned out to be 0.534.
As to “MAASAKRKQEEKHLKMLRDMTGLPHNRKCFDCDQRGPTYVNMTVGSFVCTSCSGSLRGLNPPHRVKSISMTTFTQQEIEFLQKHGNEVCKQIWLGLFDDRSSAIPDFRDPQKVKEFLQEKYEKKRWYVPPEQAKVVASVHASISGSSASSTSSTPEVKPLKSLLGDSAPTLHLNKGTPSQSPVVGRSQGQQQEKKQFDLLSDLGSDIFAAPAPQSTATANFANFAHFNSHAAQNSANADFANFDAFGQSSGSSNFGGFPTASHSPFQPQTTGGSAASVNANFAHFDNFPKSSSADFGTFNTSQSHQTASAVSKVSTNKAGLQTADKYAALANLDNIFSAGQGGDQGSGFGTTGKAPVGSVVSVPSQSSASSDKYAALAELDSVFSSAATSSNAYTSTSNASSNVFGTVPVVASAQTQPASSSVPAPFGATPSTNPFVAAAGPSVASSTNPFQTNARGATAATFGTASMSMPTGFGTPAPYSLPTSFSGSFQQPAFPAQAAFPQQTAFSQQPNGAGFAAFGQTKPVVTPFGQVAAAGVSSNPFMTGAPTGQFPTGSSSTNPFL [AGFG1]”, the values for the melting temperature with HeLa Kyoto [1] (cell cycle stage: G1/S) and in the data set with HeLa Kyoto [1] (cell cycle stage: mitosis) were 50.9 °C and 52.1 °C, respectively. Moreover, the “solubility change mitosis (log2)” value in the data set on HeLa Kyoto [2] was -0.0484. Besides, the thermal stability score was 0.14 in the data set with HeLa Kyoto [3] (setting [5]) and -0.191 in the data set on HeLa Kyoto [3] (cell cycle stage: mitosis). Besides, the “solubility in G1/S (log2)” value in the data set on HeLa Kyoto [4] worked out at 0.0305.
In the case of “MAASCLVLLALCLLLPLLLLGGWKRWRRGRAARHVVAVVLGDVGRSPRMQYHALSLAMHGFSVTLLGFCNSKPHDELLQNNRIQIVGLTELQSLAVGPRVFQYGVKVVLQAMYLLWKLMWREPGAYIFLQNPPGLPSIAVCWFVGCLCGSKLVIDWHNYGYSIMGLVHGPNHPLVLLAKWYEKFFGRLSHLNLCVTNAMREDLADNWHIRAVTVYDKPASFFKETPLDLQHRLFMKLGSMHSPFRARSEPEDPVTERSAFTERDAGSGLVTRLRERPALLVSSTSWTEDEDFSILLAALEKFEQLTLDGHNLPSLVCVITGKGPLREYYSRLIHQKHFQHIQVCTPWLEAEDYPLLLGSADLGVCLHTSSSGLDLPMKVVDMFGCCLPVCAVNFKCLHELVKHEENGLVFEDSEELAAQLQMLFSNFPDPAGKLNQFRKNLRESQQLRWDESWVQTVLPLVMDT [ALG1]”, the melting temperature was 52.4 °C with HeLa Kyoto [1] (cell cycle stage: G1/S) and 52.6 °C in the data set on HeLa Kyoto [1] (cell cycle stage: mitosis). Also, the “solubility change mitosis (log2)” value with HeLa Kyoto [2] is -0.125. The thermal stability score in the data set on HeLa Kyoto [3] (setting [5]) is 0.156; with HeLa Kyoto [3] (cell cycle stage: mitosis), -0.276. Also, the “solubility in G1/S (log2)” value with HeLa Kyoto [4] is -0.369.
In the case of “MAASGESGTSGGGGSTEEAFMTFYSEVKQIEKRDSVLTSKNQIERLTRPGSSYFNLNPFEVLQIDPEVTDEEIKKRFRQLSILVHPDKNQDDADRAQKAFEAVDKAYKLLLDQEQKKRALDVIQAGKEYVEHTVKERKKQLKKEGKPTIVEEDDPELFKQAVYKQTMKLFAELEIKRKEREAKEMHERKRQREEEIEAQEKAKREREWQKNFEESRDGRVDSWRNFQANTKGKKEKKNRTFLRPPKVKMEQRE [DNAJC8]”, the melting temperature is 50.1 °C in the data set with HeLa Kyoto [1] (cell cycle stage: G1/S) and 51.5 °C with HeLa Kyoto [1] (cell cycle stage: mitosis). The “solubility change mitosis (log2)” value with HeLa Kyoto [2] came out at 0.145. The thermal stability score was 1.39 in the data set on HeLa Kyoto [3] (setting [5]) and 0.712 with HeLa Kyoto [3] (cell cycle stage: mitosis). Also, in the data set with HeLa Kyoto [4], the “solubility in G1/S (log2)” value stood at 0.748.
